Positions count from the first letter of the chain named. In names and notes the source's numbering stands.
B1: β-glucosidase B (BglB) (Paenibacillus polymyxa) (protein)
chain: MSENTFIFPATFMWGTSTSSYQIEGGTDEGGRTPSIWDTFCQIPGKVIGGDCGDVACDHFHHFKEDVQLMKQLGFLHYRFSVAWPRIMPAAGIINEEGLLFYEHLLDEIELAGLIPMLTLYHWDLPQWIEDEGGWTQRETIQHFKTYASVIMDRFGERINWWNTINEPYCASILGYGTGEHAPGHENWREAFTAAHHILMCHGIASNLHKEKGLTGKIGITLNMEHVDAASERPEDVAAAIRRDGFINRWFAEPLFNGKYPEDMVEWYGTYLNGLDFVQPGDMELIQQPGDFLGINYYTRSIIRSTNDASLLQVEQVHMEEPVTDMGWEIHPESFYKLLTRIEKDFSKGLPILITENGAAMRDELVNGQIEDTGRHGYIEEHLKACHRFIEEGGQLKGYFVWSFLDNFEWAWGYSKRFGIVHINYETQERTPKQSALWFKQMMAKNGF
B2: β-glucosidase B (BglB) (Paenibacillus polymyxa; M224K) (protein)
chain: B1 chain with M224K
B3: β-glucosidase B (BglB) (Paenibacillus polymyxa; Y169H) (protein)
chain: B1 chain with Y169H
B4: β-glucosidase B (BglB) (Paenibacillus polymyxa; V314D) (protein)
chain: B1 chain with V314D

Substrate: O=[N+]([O-])c1ccc(O[C@@H]2O[C@H](CO)[C@@H](O)[C@H](O)[C@H]2O)cc1
Experiment: purified protein
Details: technical triplicates
[1] = biological replicate a of two, low protein yield

| Protein | Km [mM] | kcat [s⁻¹] | other results |
| --- | --- | --- | --- |
| B1 | 4.38 | 6.1433 |  |
| B2 |  |  | Km [1]: 7.54 mM; kcat [1]: 1.695 s⁻¹ |
| B3 |  |  | Km (biological replicate a of two): 22.35 mM; kcat (biological replicate a of two): 9.8983 s⁻¹ |
| B4 | 6.84 | 4.9167 |  |
